“Also recorded” adds a separate entry of the source.
What was measured:
N1 (CBDN1) = biological target: T1, N1 (CBDN1) (Cellulomonas fimi, UniProt P14090); experiment: N1 binding constants by NMR; conditions: 35° C.; read-out: NMR Ka (converted)
T1 construct: leader (signal) peptide of C. fimi exoglucanase Cex (N); made in house; host or cells: E. coli JM101 (pTugKN1), purified from culture supernatant
T1 sequence (P14090 33-184): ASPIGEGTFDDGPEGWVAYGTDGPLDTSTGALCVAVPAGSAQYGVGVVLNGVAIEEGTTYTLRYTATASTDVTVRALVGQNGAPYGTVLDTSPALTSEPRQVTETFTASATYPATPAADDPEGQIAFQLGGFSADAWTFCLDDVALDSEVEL

CBDN1 = biological target: T2, CBDN1 (Cellulomonas fimi, UniProt P14090); experiment: Isothermal titration microcalorimetry of oligosaccharide binding to CBDN1; conditions: 35° C.; for Kd: 50-mM PBS, pH 7, read-out: Isothermal Titration Microcalorimetry Ka (converted)
T2 construct: leader (signal) peptide of C. fimi exoglucanase Cex (N); made in house; host or cells: E. coli JM101 (pTugKN1), purified from culture supernatant
T2 sequence (P14090 33-184): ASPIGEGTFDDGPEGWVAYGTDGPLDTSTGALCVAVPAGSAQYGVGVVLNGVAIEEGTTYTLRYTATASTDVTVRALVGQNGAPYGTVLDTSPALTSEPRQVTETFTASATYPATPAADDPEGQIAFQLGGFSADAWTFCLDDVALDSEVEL
From the text: Microcalorimetry was used to measure binding thermodynamics for CBDN1 to a wide range of water-soluble oligosaccharides with the aim of identifying a set of suitable ligands for the affinity partition system. […] For both oligosaccharides, CBDN1 binding is as tight or even tighter than nearly all PEG-based affinity ligands (e.g., Cibacron blue-PEG, Procion red-PEG, dinitrophenyl-PEG, diacetic acid-PEG) currently in use in affinity partition systems.

B6SUtA cells = experiment: Activity of SLF-CBD bound to regenerated cellulose coated microtiter plates (MTT); format: cell-based
Description: A 1% (w/v) solution of cellulose acetate was prepared by adding one gram of cellulose acetate (Kodak Inc.) to 99 ml of acetic acid. One hundred μl of this solution was added to each well of the standard 96 well tissue culture plates used above, and the acetic acid allowed to evaporate. One hundred μl of 50 mM NaOH was then added to each well and left for 20 minutes to regenerate a cellulose surface. The NaOH was then poured out, and the wells rinsed three times with PBS. Three hundred μl of 70% (v/v) ethanol was then added to each well, the plate lid replaced, and the ethanol allowed to evaporate as a sterilization step.
Activity tests were carried out as previously described except that a cellulose acetate derived surface was used to immobilize SLF/CBD instead of BMCC. Twenty μl protein test samples were put into cellulose coated wells. […] Activity was measured after 48 h of culture using the […] with data points collected in quadruplicate. […]
Non-tagged SLF was used as a control. In one set of control experiments, SLF was added to cellulose coated tissue culture wells as before, the surface was seeded with fresh cells three times, and the proliferation measured. […] These surfaces were seeded with cells three times and the activity measured.

[1] = Binding of SLF-CBD to Avicel cellulose during purification; conditions: affinity chromatography on Avicel
Description: The plasmid pSLF/CBD 1.0 was transformed into E. coli JM101 (Yanisch-Perronet al. (1985) Gene 33: 103-119) for expression. Several colonies were scraped from a plate and used to inoculate a 5 ml test tube of Terrific Broth (Tartof and Hobbs, Bethesda Res. Lab. Focus 9: 12) containing […] kanamycin. This tube was incubated with shaking at 37° C. for four hours and then used to inoculate four flasks containing 500 ml of the same medium at 0.2% volume. These flasks were then incubated at 37° C. with shaking at 250 rpm until a cell culture optical density (OD550) […]. The cells were then induced by the addition of 0.1 mM IPTG and shifted to 30° C. with shaking at 100 rpm for a further eight hours. Cells were then harvested and the periplasmic proteins isolated by osmotic shock (Neu and Heppel (1965) J. Biol. Chem. 240: 3685-3692). Five mg of Avicel microcrystalline cellulose (FMC International, Cork, Ireland) was added to either 10 ml of culture supernatant or 1 ml of periplasmic extract and then removed by centrifugation. SDS-PAGE loading buffer was than added to the Avicel, which was then boiled for two minutes and loaded directly onto a gel for SDS-PAGE analysis (Laemmli, supra.) (FIG. 8A).

[2] = system: SLF dependent bone marrow cell line B6SUtA1; experiment: MTT proliferation assay of SLF-CBD in solution or bound to BMCC; format: cell-based; conditions: for distribution of activity between BMCC and supernatant after Factor Xa cleavage: 1 μg/ml BMCC, Factor Xa added; for effect of presence of BMCC on activity: protein concentration varied; for distribution of activity between BMCC and supernatant: bound to 1 μg/ml BMCC, matrix removed by centrifugation and resuspended; for potency when immobilized on cellulose vs in solution (maximum proliferative response, specific activity): immobilized on cellulose (BMCC); for proliferative activity in solution (MTT), compared with control SLF: non-immobilized, absence of an immobilization matrix
Description: Samples of purified SLF-CBD were diluted in H-SFM. […] In experiments where BMCC was used, 50 μl of a BMCC suspension in H-SFM was added to each well, and in experiments where no BMCC was used 50 μl of H-SFM alone was added.
Statistical analysis of data was carried out with regression curve fitting in two iterations using non-linear regression analysis from the GraFit version 3.0 statistical analysis program (Erithacus Software Ltd., Staines, U.K.).

[3] = BMCC fixed at 1 μg/ml or 14 μg/ml

Molecule: OC[C@H]1O[C@@H](O[C@H]2[C@H](O)[C@@H](O)[C@H](O[C@H]3[C@H](O)[C@@H](O)[C@H](O[C@H]4[C@H](O)[C@@H](O)[C@H](O[C@H]5[C@H](O)[C@@H](O)[C@H](O[C@H]6[C@H](O)[C@@H](O)C(O)O[C@@H]6CO)O[C@@H]5CO)O[C@@H]4CO)O[C@@H]3CO)O[C@@H]2CO)[C@H](O)[C@@H](O)[C@@H]1O (stereo partly shown) [Cellohexaose]
- Kd (N1 (CBDN1)): 19.6 µM
- Isothermal Titration Microcalorimetry -TΔS° (CBDN1): 0.79 ± 0.1 kcal/mol
- Isothermal Titration Microcalorimetry ΔH° (CBDN1): -6.9 ± 0.2 kcal/mol
- Kd (CBDN1): 0.0397 mM

Molecule: OC[C@H]1O[C@@H](O[C@H]2[C@H](O)[C@@H](O)[C@H](O[C@H]3[C@H](O)[C@@H](O)[C@H](O[C@H]4[C@H](O)[C@@H](O)[C@H](O[C@H]5[C@H](O)[C@@H](O)C(O)O[C@@H]5CO)O[C@@H]4CO)O[C@@H]3CO)O[C@@H]2CO)[C@H](O)[C@@H](O)[C@@H]1O (stereo partly shown) [Cellopentaose]
- Kd (N1 (CBDN1)): 29.4 µM
- Isothermal Titration Microcalorimetry -TΔS° (CBDN1): 0.86 ± 0.1 kcal/mol
- Isothermal Titration Microcalorimetry ΔH° (CBDN1): -6.8 ± 0.2 kcal/mol
- Kd (CBDN1): 0.0559 mM

Molecule: OC[C@H]1O[C@@H](O[C@H]2[C@H](O)[C@@H](O)[C@H](O[C@H]3[C@H](O)[C@@H](O)[C@H](O[C@H]4[C@H](O)[C@@H](O)C(O)O[C@@H]4CO)O[C@@H]3CO)O[C@@H]2CO)[C@H](O)[C@@H](O)[C@@H]1O (stereo partly shown) [Cellotetraose]
- Kd (N1 (CBDN1)): 238 µM
- Isothermal Titration Microcalorimetry -TΔS° (CBDN1): 1.4 ± 0.1 kcal/mol
- Isothermal Titration Microcalorimetry ΔH° (CBDN1): -6.4 ± 0.2 kcal/mol
- Kd (CBDN1): 0.244 mM

Molecule: OC[C@H]1O[C@@H](O[C@H]2[C@H](O)[C@@H](O)[C@H](O[C@H]3[C@H](O)[C@@H](O)C(O)O[C@@H]3CO)O[C@@H]2CO)[C@H](O)[C@@H](O)[C@@H]1O (stereo partly shown) [Cellotriose]
- Kd (N1 (CBDN1)): 5560 µM

B1: SLF-CBD: fusion protein: extracellular domain of murine steel factor linked to the cellulose binding domain of Cellulomonas fimi exoglucanase Cex (protein)
chain: KEICGNPVTDNVKDITKLVANLPNDYMITLNYVAGMDVLPSHCWLRDMVIQLSLSLTTLLDKFSNISEGLSNYSIIDKLGKIVDDLVLCMEENAPKNIKESPKRPETRSFTPEEFFSIFNRSIDAFKDFMVASDTSDCVLSSTLGPEKDSRVSVTKPFMLPPVAASSLRNDSSSSNRKAAKAPEDSGLQPTPTPTTPTPTPTTPTPTPTSGPAGCQVLWGVNQWNTGFTANVTVKNTSSAPVDGWTLTFSFPSGQQVTQAWSSTVTQSGSAVTVRNAPWNGSIPAGGTAQFGFNGSHTGTNAAPTAFSLNGTPCTVG
- fraction bound to reconstituted cellulose surface (activity on plate vs supernatant) (B6SUtA cells; cellulose coated microtiter plate): essentially all
- proliferative activity after repeated use of the same surface (B6SUtA cells; three consecutive rounds of 48 h cell culture): no loss in proliferative activity; also recorded: no loss of proliferative activity; also recorded: without loss of growth-stimulating activity
- binding of the fusion protein to cellulose [1]: strong and difficult to reverse
- neutralization of activity by anti-SLF neutralizing polyclonal antibodies ([2]; 0.6 nM SLF-CBD, in solution): neutralized
- distribution of activity between BMCC and supernatant after Factor Xa cleavage [2]: the bulk of the activity was found in the supernatant
- distribution of activity between BMCC and supernatant after Factor Xa cleavage ([2]; listed as SLF/CBD): the activity was no longer associated with the BMCC
- SLF-CBD concentration at maximum stimulatory activity ([2]; BMCC constant at 1 μg/ml (1.22 cm^2/ml)): about 2000 pM
- ED50 (protein concentration for half maximal response) in presence vs absence of BMCC [2, 3]: decrease
- total cell proliferation in presence vs absence of BMCC [2, 3]: increase
- effect of presence of BMCC on activity [2, 3]: clearly more active in the presence of BMCC
- BMCC concentration at maximum activity ([2]; SLF-CBD held constant at 1500 pM, BMCC varied): 44 µg/mL
- distribution of activity between BMCC and supernatant [2]: the bulk of the activity was associated with the BMCC; also recorded: most of the activity was associated with the BMCC particles
- potency when immobilized on cellulose vs in solution (maximum proliferative response, specific activity) [2]: significantly more potent; also recorded: to a greater extent than non-immobilized steel factor
- proliferative activity in solution (MTT), compared with control SLF [2]: similar
- ED50 of soluble fusion protein vs control protein ([2]; soluble form): identical
- maximum cell density generated vs control protein ([2]; soluble form): not quite as great

B2: CBD: recombinant cellulose binding domain of Cex, negative control (protein)
chain: SGPAGCQVLWGVNQWNTGFTANVTVKNTSSAPVDGWTLTFSFPSGQQVTQAWSSTVTQSGSAVTVRNAPWNGSIPAGGTAQFGFNGSHTGTNAAPTAFSLNGTPCTVG
- proliferative activity in solution (MTT), compared with control SLF [2]: did not stimulate the proliferation

B3: control SLF: recombinant extracellular domain of murine steel factor without affinity tag (R&D systems), positive control (protein)
chain: KEICGNPVTDNVKDITKLVANLPNDYMITLNYVAGMDVLPSHCWLRDMVIQLSLSLTTLLDKFSNISEGLSNYSIIDKLGKIVDDLVLCMEENAPKNIKESPKRPETRSFTPEEFFSIFNRSIDAFKDFMVASDTSDCVLSSTLGPEKDSRVSVTKPFMLPPVAASSLRNDSSSSNRKAAKAPEDSGLQ
- effect of presence of BMCC on activity [2, 3]: no effect
- distribution of activity between BMCC and supernatant [2]: most of the activity was in the supernatant
- distribution of activity between BMCC and supernatant ([2]; listed as non-tagged SLF control): most of the activity was associated with the supematant
- potency when immobilized on cellulose vs in solution (maximum proliferative response, specific activity) [2]: not observed

Reference: US5874308A, “Compositions and methods for modulating cell proliferation using growth factor-polysaccharide binding fusion proteins” (priority 1996, dated 1999)
